In patent US20180298097A1:

What was measured:
[1] = molecular target: CHO-huTIM3 (UniProt Q8TDQ0); assay: FACS binding, CHO-huTIM3 transfectant; isotype control
[2] = molecular target: mouse TIM3 (mouse) (UniProt Q8VIM0); assay: binding to activated mouse T cells, compared with TIM3.18 binding to human TIM-3
[3] = molecular target: mouse TIM3 (mouse) (UniProt Q8VIM0); assay: binding to activated mouse T cells; method not described

Chain of mouse TIM3 (mouse) (Q8VIM0 20-281): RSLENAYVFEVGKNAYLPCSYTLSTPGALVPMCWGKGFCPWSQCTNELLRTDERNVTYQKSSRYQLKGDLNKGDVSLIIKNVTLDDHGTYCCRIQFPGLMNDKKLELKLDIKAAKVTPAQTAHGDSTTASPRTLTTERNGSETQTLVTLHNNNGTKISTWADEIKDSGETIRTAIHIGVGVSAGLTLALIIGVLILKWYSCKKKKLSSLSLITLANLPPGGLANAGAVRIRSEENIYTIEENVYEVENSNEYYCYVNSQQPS

Which EC50 [1] does the source give for hIgG2 here?
Its EC50 is 42.3 mg/mL.

For hIgG4, which EC50 [1] is on record?
The EC50 was 29.3 mg/mL.

For “rat anti-mouse TIM-3 antibody RMT3-23 (Bio-X-Cell)”, which fold weaker EC50 than TIM3.18 on human TIM-3 [2] is on record?
The fold weaker EC50 than TIM3.18 on human TIM-3 was 17 fold.

What about the EC50 [3] of the same substance?
Its EC50 is 1.7 nM.
